Results from article PMC5454376, “Molecular mechanism of Gαi activation by non-GPCR proteins with a Gα-Binding and Activating motif” (Nature Communications, 2017).

B1: Human His-Gαi3 WT [human] / Fluorescein-labelled GIV peptide (residues 1,671–1,701) [modified: 5,6-carboxyfluorescein coupled to the resin-bound peptide after chain elongation; 5,6-carboxyfluorescein coupled to the resin-bound … (parent)
chain 1: MGCTLSAEDKAAVERSKMIDRNLREDGEKAAKEVKLLLLGAGESGKSTIVKQMKIIHEDGYSEDECKQYKVVVYSNTIQSIIAIIRAMGRLKIDFGEAARADDARQLFVLAGSAEEGVMTPELAGVIKRLWRDGGVQACFSRSREYQLNDSASYYLNDLDRISQSNYIPTQQDVLRTRVKTTGIVETHFTFKDLYFKMFDVGGQRSERKKWIHCFEGVTAIIFCVALSDYDLVLAEDEEMNRMHESMKLFDSICNNKWFTETSIILFLNKKDLFEEKIKRSPLTICYPEYTGSNTYEEAAAYIQCQFEDLNRRKDTKEIYTHFTCATDTKNVQFVFDAVTDVIIKNNLKECGLY
chain 2: KTGSPGSEVVTLQQFLEESNKLTSVQIKSSS

Variants of: B1
Experiment: fluorescence polarisation
Conditions: with Fluorescein-labelled GIV peptide (residues 1,671–1,701) [modified: 5,6-carboxyfluorescein coupled to the resin-bound peptide after chain elongation

Kd [µM] | ratio to parent | Variant
> 10 | > 20 | chain 1 MGCTLSAEDKAAVERSKMIDRNLREDGEKAAKEVKLLLLGAGESGKSTIVKQMKIIHEDGYSEDECKQYKVVVYSNTIQSIIAIIRAMGRLKIDFGEAARADDARQLFVLAGSAEEGVMTPELAGVIKRLWRDGGVQACFSRSREYQLNDSASYYLNDLDRISQSNYIPTQQDVLRTRVKTTGIVETHFTFKDLYFKMFDVGGQRSERKKWIHCAEGVTAIIFCVALSDYDLVLAEDEEMNRMHESMKLFDSICNNKWFTETSIILFLNKKDLFEEKIKRSPLTICYPEYTGSNTYEEAAAYIQCQFEDLNRRKDTKEIYTHFTCATDTKNVQFVFDAVTDVIIKNNLKECGLY [chain 1 F215A]
– | 1.22 | chain 1 MGCTLSAEDKAAVERSKMIDRNLREDGEKAAKEVKALLLGAGESGKSTIVKQMKIIHEDGYSEDECKQYKVVVYSNTIQSIIAIIRAMGRLKIDFGEAARADDARQLFVLAGSAEEGVMTPELAGVIKRLWRDGGVQACFSRSREYQLNDSASYYLNDLDRISQSNYIPTQQDVLRTRVKTTGIVETHFTFKDLYFKMFDVGGQRSERKKWIHCFEGVTAIIFCVALSDYDLVLAEDEEMNRMHESMKLFDSICNNKWFTETSIILFLNKKDLFEEKIKRSPLTICYPEYTGSNTYEEAAAYIQCQFEDLNRRKDTKEIYTHFTCATDTKNVQFVFDAVTDVIIKNNLKECGLY [chain 1 L36A]
– | 0.623 | chain 1 MGCTLSAEDKAAVERSKMIDRNLREDGEKAAKEVKLLLLGAGESGKSTIVKQMKIIHEDGYSEDECKQYKVVVYSNTIQSIIAIIRAMGRLKIDFGEAARADDARQLFVLAGSAEEGVMTPELAGVIKRLWRDGGVQACFSRSREYQLNDSASYYLNDLDRISQSNYIPTQQDVLRTRVKTTGIVETHFTFKDLYFKMFDVGGQRSERKKWIHCFEGATAIIFCVALSDYDLVLAEDEEMNRMHESMKLFDSICNNKWFTETSIILFLNKKDLFEEKIKRSPLTICYPEYTGSNTYEEAAAYIQCQFEDLNRRKDTKEIYTHFTCATDTKNVQFVFDAVTDVIIKNNLKECGLY [chain 1 V218A]
– | 5.3 | chain 1 MGCTLSAEDKAAVERSKMIDRNLREDGEKAAKEVKLLLAGAGESGKSTIVKQMKIIHEDGYSEDECKQYKVVVYSNTIQSIIAIIRAMGRLKIDFGEAARADDARQLFVLAGSAEEGVMTPELAGVIKRLWRDGGVQACFSRSREYQLNDSASYYLNDLDRISQSNYIPTQQDVLRTRVKTTGIVETHFTFKDLYFKMFDVGGQRSERKKWIHCFEGVTAIIFCVALSDYDLVLAEDEEMNRMHESMKLFDSICNNKWFTETSIILFLNKKDLFEEKIKRSPLTICYPEYTGSNTYEEAAAYIQCQFEDLNRRKDTKEIYTHFTCATDTKNVQFVFDAVTDVIIKNNLKECGLY [chain 1 L39A]
– | 2.35 | chain 1 MGCTLSAEDKAAVERSKMIDRNLREDGEKAAKEVKLLLLGAGESGKSTIVKQMKIIHEDGYSEDECKQYKVVVYSNTIQSIIAIIRAMGRLKIDFGEAARADDARQLFVLAGSAEEGVMTPELAGVIKRLWRDGGVQACFSRSREYQLNDSASYYLNDLDRISQSNYIPTQQDVLRTRVKTTGIVETHFTFKDLYFKMFDVGGQRSERKKWIHCFEGVTAIIFCVALSDYDLVLAEDEEMNRMHESMKVFDSICNNKWFTETSIILFLNKKDLFEEKIKRSPLTICYPEYTGSNTYEEAAAYIQCQFEDLNRRKDTKEIYTHFTCATDTKNVQFVFDAVTDVIIKNNLKECGLY [chain 1 L249V]
– | 7.58 | chain 1 MGCTLSAEDKAAVERSKMIDRNLREDGEKAAKEVKLLLLGAGESGKSTIVKQMKIIHEDGYSEDECKQYKVVVYSNTIQSIIAIIRAMGRLKIDFGEAARADDARQLFVLAGSAEEGVMTPELAGVIKRLWRDGGVQACFSRSREYQLNDSASYYLNDLDRISQSNYIPTQQDVLRTRVKTTGIVETHFTFKDLYFKMFDVGGQRSERKKWIHCFEGVTAIIFCVALSDYDLVLAEDEEMNRMHESMKHFDSICNNKWFTETSIILFLNKKDLFEEKIKRSPLTICYPEYTGSNTYEEAAAYIQCQFEDLNRRKDTKEIYTHFTCATDTKNVQFVFDAVTDVIIKNNLKECGLY [chain 1 L249H]
– | 3.28 | chain 1 MGCTLSAEDKAAVERSKMIDRNLREDGEKAAKEVKLLLLGAGESGKSTIVKQMKIIHEDGYSEDECKQYKVVVYSNTIQSIIAIIRAMGRLKIDFGEAARADDARQLFVLAGSAEEGVMTPELAGVIKRLWRDGGVQACFSRSREYQLNDSASYYLNDLDRISQSNYIPTQQDVLRTRVKTTGAVETHFTFKDLYFKMFDVGGQRSERKKWIHCFEGVTAIIFCVALSDYDLVLAEDEEMNRMHESMKLFDSICNNKWFTETSIILFLNKKDLFEEKIKRSPLTICYPEYTGSNTYEEAAAYIQCQFEDLNRRKDTKEIYTHFTCATDTKNVQFVFDAVTDVIIKNNLKECGLY [chain 1 I184A]
– | 1.77 | chain 1 MGCTLSAEDKAAVERSKMIDRNLREDGEKAAKEVKLLLLGAGESGKSTIVKQMKIIHEDGYSEDECKQYKVVVYSNTIQSIIAIIRAMGRLKIDFGEAARADDARQLFVLAGSAEEGVMTPELAGVIKRLWRDGGVQACFSRSREYQLNDSASYYLNDLDRISQSNYIPTQQDVLRTRVKTTGIVETHFTFKDLYFKMFDVGGQRSERKKWIHCFEGVTAIIFCVALSDYDLVLAEDEEMNRMHESMKLFDSICNNAWFTETSIILFLNKKDLFEEKIKRSPLTICYPEYTGSNTYEEAAAYIQCQFEDLNRRKDTKEIYTHFTCATDTKNVQFVFDAVTDVIIKNNLKECGLY [chain 1 K257A]
– | 5.32 | chain 1 MGCTLSAEDKAAVERSKMIDRNLREDGEKAAKEVKLLLLGAGESGKSTIVKQMKIIHEDGYSEDECKQYKVVVYSNTIQSIIAIIRAMGRLKIDFGEAARADDARQLFVLAGSAEEGVMTPELAGVIKRLWRDGGVQACFSRSREYQLNDSASYYLNDLDRISQSNYIPTQQDVLRTRVKTTGIVETHFTFKDLYFKMFDVGGQRSERKKWIHCFEGVTAIIFCVALSDYDLVLAEDEEMNRMHESMKLFDDICNNKWFTETSIILFLNKKDLFEEKIKRSPLTICYPEYTGSNTYEEAAAYIQCQFEDLNRRKDTKEIYTHFTCATDTKNVQFVFDAVTDVIIKNNLKECGLY [chain 1 S252D]
– | 0.417 | chain 1 MGCTLSAEDKAAVERSKMIDRNLREDGEKAAKEVKLLLLGAGESGKSTIVKQMKIIHEDGYSEDECKQYKVVVYSNTIQSIIAIIRAMGRLKIDFGEAARADDARQLFVLAGSAEEGVMTPELAGVIKRLWRDGGVQACFSRSREYQLNDSASYYLNDLDRISQSNYIPTQQDVLRTRVKTTGIVETHFTFKDLYFKMFDVGGQRSERKKWIHCFEGVTAIIFCVALSDYDLVLAEDEEMNRMHESMKLFDAICNNKWFTETSIILFLNKKDLFEEKIKRSPLTICYPEYTGSNTYEEAAAYIQCQFEDLNRRKDTKEIYTHFTCATDTKNVQFVFDAVTDVIIKNNLKECGLY [chain 1 S252A]
> 20 | > 40 | chain 1 MGCTLSAEDKAAVERSKMIDRNLREDGEKAAKEVKLLLLGAGESGKSTIVKQMKIIHEDGYSEDECKQYKVVVYSNTIQSIIAIIRAMGRLKIDFGEAARADDARQLFVLAGSAEEGVMTPELAGVIKRLWRDGGVQACFSRSREYQLNDSASYYLNDLDRISQSNYIPTQQDVLRTRVKTTGIVETHFTFKDLYFKMFDVGGQRSERKKWIHCFEGVTAIIFCVALSDYDLVLAEDEEMNRMHESMKLFDSICNEKWFTETSIILFLNKKDLFEEKIKRSPLTICYPEYTGSNTYEEAAAYIQCQFEDLNRRKDTKEIYTHFTCATDTKNVQFVFDAVTDVIIKNNLKECGLY [chain 1 N256E]
– | 2.11 | chain 1 MGCTLSAEDKAAVERSKMIDRNLREDGEKAAKEVKLLLLGAGESGKSTIVKQMKIIHEDGYSEDECKQYKVVVYSNTIQSIIAIIRAMGRLKIDFGEAARADDARQLFVLAGSAEEGVMTPELAGVIKRLWRDGGVQACFSRSREYQLNDSASYYLNDLDRISQSNYIPTQQDVLRTRVKTTGIVETHFTFKDLYFKMFDVGGQRSERKKWIHCFEGVTAIIFCVALSDYDLVLAEDEEMNRMHESMKLFDSICNAKWFTETSIILFLNKKDLFEEKIKRSPLTICYPEYTGSNTYEEAAAYIQCQFEDLNRRKDTKEIYTHFTCATDTKNVQFVFDAVTDVIIKNNLKECGLY [chain 1 N256A]
– | 0.822 | chain 1 MGCTLSAEDKAAVERSKMIDRNLREDGEKAAKEVKLALLGAGESGKSTIVKQMKIIHEDGYSEDECKQYKVVVYSNTIQSIIAIIRAMGRLKIDFGEAARADDARQLFVLAGSAEEGVMTPELAGVIKRLWRDGGVQACFSRSREYQLNDSASYYLNDLDRISQSNYIPTQQDVLRTRVKTTGIVETHFTFKDLYFKMFDVGGQRSERKKWIHCFEGVTAIIFCVALSDYDLVLAEDEEMNRMHESMKLFDSICNNKWFTETSIILFLNKKDLFEEKIKRSPLTICYPEYTGSNTYEEAAAYIQCQFEDLNRRKDTKEIYTHFTCATDTKNVQFVFDAVTDVIIKNNLKECGLY [chain 1 L37A]
> 10 | > 20 | chain 1 MGCTLSAEDKAAVERSKMIDRNLREDGEKAAKEVALLLLGAGESGKSTIVKQMKIIHEDGYSEDECKQYKVVVYSNTIQSIIAIIRAMGRLKIDFGEAARADDARQLFVLAGSAEEGVMTPELAGVIKRLWRDGGVQACFSRSREYQLNDSASYYLNDLDRISQSNYIPTQQDVLRTRVKTTGIVETHFTFKDLYFKMFDVGGQRSERKKWIHCFEGVTAIIFCVALSDYDLVLAEDEEMNRMHESMKLFDSICNNKWFTETSIILFLNKKDLFEEKIKRSPLTICYPEYTGSNTYEEAAAYIQCQFEDLNRRKDTKEIYTHFTCATDTKNVQFVFDAVTDVIIKNNLKECGLY [chain 1 K35A]
> 20 | > 40 | chain 1 MGCTLSAEDKAAVERSKMIDRNLREDGEKAAKEVKLLLLGAGESGKSTIVKQMKIIHEDGYSEDECKQYKVVVYSNTIQSIIAIIRAMGRLKIDFGEAARADDARQLFVLAGSAEEGVMTPELAGVIKRLWRDGGVQACFSRSREYQLNDSASYYLNDLDRISQSNYIPTQQDVLRTRVKTTGIVETHFTFKDLYFKMFDVGGQRSERKKAIHCFEGVTAIIFCVALSDYDLVLAEDEEMNRMHESMKLFDSICNNKWFTETSIILFLNKKDLFEEKIKRSPLTICYPEYTGSNTYEEAAAYIQCQFEDLNRRKDTKEIYTHFTCATDTKNVQFVFDAVTDVIIKNNLKECGLY [chain 1 W211A]
– | 2.57 | chain 1 MGCTLSAEDKAAVERSKMIDRNLREDGEKAAKEVKLLLLGAGESGKSTIVKQMKIIHEDGYSEDECKQYKVVVYSNTIQSIIAIIRAMGRLKIDFGEAARADDARQLFVLAGSAEEGVMTPELAGVIKRLWRDGGVQACFSRSREYQLNDSASYYLNDLDRISQSNYIPTQQDVLRTRVKTTGIVETHFTFKDLYFKMFDVGGQRSERKKWIHCFEGVTAIIFCVALSDYDLVLAEDEEMNRMHESMKLFDSICNNKWATETSIILFLNKKDLFEEKIKRSPLTICYPEYTGSNTYEEAAAYIQCQFEDLNRRKDTKEIYTHFTCATDTKNVQFVFDAVTDVIIKNNLKECGLY [chain 1 F259A]
0.377 | 0.649 | chain 1 MGCTLSAEDKAAVERSKMIDRNLREDGEKAAKEVKLLLLGARESGKSTIVKQMKIIHEDGYSEDECKQYKVVVYSNTIQSIIAIIRAMGRLKIDFGEAARADDARQLFVLAGSAEEGVMTPELAGVIKRLWRDGGVQACFSRSREYQLNDSASYYLNDLDRISQSNYIPTQQDVLRTRVKTTGIVETHFTFKDLYFKMFDVGGQRSERKKWIHCFEGVTAIIFCVALSDYDLVLAEDEEMNRMHESMKLFDSICNNKWFTETSIILFLNKKDLFEEKIKRSPLTICYPEYTGSNTYEEAAAYIQCQFEDLNRRKDTKEIYTHFTCATDTKNVQFVFDAVTDVIIKNNLKECGLY [chain 1 G42R]
